Assay: yeast display, Sf9 membrane polyspecificity reagent, FACS + sequencing; frameworks hold sequencing errors
Procedure, shortened: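 After 36–48 hours of galactose induction, yeast (Saccharomyces cerevisiae BJ5465) displaying a synthetic nanobody library were stained at 4 °C for 1 hour with 10% biotinylated, detergent-solubilized Sf9 membrane reagent. Streptavidin microbeads enriched the stained cells before FACS sorting into low and high (top ~1%) gates on anti-HA and streptavidin fluorescence. Each clone's polyreactivity label reflects its gate of origin.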

Sequence	polyreactivity (PSR sort gate)
QVQHVESGGGLVQAGGSLRLICAASGSTFGYNAMGWYRHAPGKERELVARITSSGGATYYADSVKWRFTISRDNAKHTVYLLKNSLKPEDTAVYYCAAGYPYRAVYRYYYWGQGTQVTVSS	high polyreactivity
QVQLVESGGGLVQAGGSLRLSCAASGSLFDHYAMGWYRQEPGTERELVARISWSGGSTYYADSVKGRFTISRDNAKNTVYLQMNRLKPEDTAVYYCARAGRSWDTLYKYYLEHDYWGQGTQVTVSS	low polyreactivity
QVQLVESGGGLVQAGGSLRLSCAASGRIFAKNAMGWYRQAPGKERELVAAINHSGGSTYYADSVKGRFTISRDNAKNTVYLQMNSLKPEDTAVYYCAALGSGVPRYYYWGQGTQVTVSS	high polyreactivity
QVQLVESGGGLVQAGGSLRLICAATGITLGYYAMGWYRQAPGKERELVAAISYRGGNTYYADSVKGRFTISRDNAKNTVYLQMNSLKPEDTAVYYCNADLGYESGWWSKYDYWGQGTQVTVSS	low polyreactivity
QVQLVESGGGLVQAGASLRLSCAASGRTFRYYDMGWSRQEPGKEREFVAAITWRGGSTYFADSVKGRFTISRDNAKNTVFLQMNSLKPEDTAVYYCATDSLRLYGGKRDLYFWGQGTQVTVSS	low polyreactivity
QVHLVESGGGLVQAGGSLRLSCAASGRIFGPYAMGWYRQAPGKERELVASISGGGSTNYADSVKGRFTISRDNAKNTVYLQMNSLKPEDTAVYYCAADVYYQYWGWWPYDYWGQGTQVTVSS	low polyreactivity
QVQLVESGGGLVQAGGSLRLSCAASGLTFHPYDMGWYRQAPGKERELVAAISSRGTSTYYADSVKGRFTISRDNAKNTVYLQMNSLKPEDTAVYYCAARHGPRAEAMYYWGQGSQVTVSS	high polyreactivity
QVQLVESGGGLVQAGGSLRLSCAASGFIFRGNTMGWYRQAPGKERELVAAISASGGSTYYADSVKGRFTISRDNAKNTVYLQMNSLKPEDTAVYYCNVAVIYRSRPYWYGMDYWGQGTQVTVSS	high polyreactivity
QVQLVESGGGLVQAGGSLRLSCAASGSIFYPYVMGWYRQAPGKERELVAAITTSVGSTYYADSVKGRFTISRDNAKNTVYLQMNSLKPEDTAVYYCAAKYFGSRRPGRYNYWGQGTQVTVSS	high polyreactivity
QVQLVESGGGLVHAGGSLRLSSAASGGIFKYNPMGWYRQAPGTERELVARISFGGSRTYYADSVKGRFTISRDNAKNTCYVQMNSLKPADTAVYYCARRVTGTLYYTGYDYWGQGTQVTVSS	high polyreactivity
QVQLVESGGGLVQAGGSLRFSCAASGFTFYVYAMGWYRHAPGKERELVAAISKSGGSTYYSDSVKGRFTISRDNAKNTVYLQMNSLKPEDTAVYYCAVYDKRSGYRGGHRYNSWGQGTQVTVSS	high polyreactivity
QVQLVESGGGLVQAGGSLRLRCAASGSIFSRNAMGWYRQAPGKERELVAAISGRGGSTYYADSVKGRFTISRDNAMNTVYLQMNRLKPEDTAVYYCAKAVIYRLSEAMDYWGQGSQVTVSS	high polyreactivity
QVQLVESGGGLVQAGGSLRLSCADSGFISGGNDMGWNRQAPGKEREFVAAIDNTGSTYYADSVKGRFTISRDNAKNTVYLQMNSLKPEDSAVYYCNAEVSEDYVDNDFWGQGTQVTVSS	low polyreactivity
QVQHVESGGGLVQAGGSLRLSCAASGYTFFANAMGGYRQAPGKERELVAGINRSGSTYYADSVKGRFTISRDNAKNTVYLQMNSLKPEDTAVYYFATAWHRGVRGRTSGAFDYWGQGTQVTVSS	high polyreactivity
QVQLVESGGGLVQAGGSLRLSCAASGITFDGYAMGWYRQAPGKEREFVAAISRSGTSTYYADSVKGRFTISRDNAKNTVYLQMNSLKPEDSAVYYCNKKWPRLYYYWGQGTQVTVSS	high polyreactivity
QVQLVESGGGLVQAGGSLRLSCAASGRTFTWNVMGWYIQAPGKERELVAAISSSGGDTYYADSVKGRFTISRDNAKNTVYLHMNSLKPEDTAVYYCAAGQVYSGYEYWGQGTQVTVSS	low polyreactivity

Sequence	polyreactivity (PSR sort gate)
QVQLVESGGGLVQAGGSLRLSCAASGRIFWVYAMGWYRQAPGKERELVAAIDWSDGITYYADSVKGRFTISRDNAKNTVYLQMNSRKPEDTAVYYCGAEYVIYQTYNYWGQGTQVTVSS	high polyreactivity
QVQLVESGGGLVQAGGSLRLSCAASGSTFDIYVMGWYRQAPGKESELVAAISRVGNTSYADSVKGRFTISRDNAKNTVNLQMNSLKPEDTAVYYCAADAPSWYDRQYDYWGQCTQVTVSS	low polyreactivity
QVQLVESGGRLVQAGGRLRLSCAASGFTFGSYAMGWYRQAPGKERELVPSISSAGRTYYADSVKGRFTISRDNAKNTVYLQMNSLKPEDTAVYYCNTDSRVTIYDYDYWGQGTQVTVSS	low polyreactivity
QVQLVESGGGLVQAGGSLRLSCAASGRTFAYYAMGWYRQAPGKERELVAAIDSSGGSTYYADSVKARFTISRDNAKNTVYLQMNSLKPEDTADYYCAASYPYDRYDQGGYGYWGQGTQVTVSS	low polyreactivity
QVQLVESGGGLVQAGGSLSLSCAASGFTFRYNAMGWYRQAPGKERELVARISSTGGGTSYADSVKGRFTISRDNAKNTVYLQMNSLKPEDTAVYYCAAPVRRYPYPGRFYYWGQGTQVTVSS	low polyreactivity
QVQLVESGGGLDQAGGSLRLSCAASASIFQRSAKCWYRQAPGKETELVAAITNGGGSTYYADSVKGRFTISRDNAMNTVYLQMNSLKPEDTAVYYCAKDGHSYYPWEYDYWVQGTQVTVSS	low polyreactivity
QVQLVESGGGLVQAGGSLRLSCAASGSTILVNAMGWYRQAPGKERELVAAISRGGSTYYADSVKGRFTISRDNAKNTVYLQMTSLKPEDTAVSYCAARGVYVKYYYWGQGTQVTVSS	high polyreactivity
QVQLVESGGGLVQAGGSLRLSCAASGFTFSRYAMGWYRQAPGKERELVAAITRGGSTNYADSVKGRFTISRDNAKNTVYLQMNSLKPEDTAVYYCAVRIRYSTNAYYYWGQGTQVTVSS	high polyreactivity
QVQLVESGGGLVQAGGSLRLRCAASGNTFFGYDMGWYRQAPGKERELVAAISGSGGGTYYADSVKGRFTISRDNAMNTVYLQMNCLKPEDTAVYYCAADSPQTEGYWGEGTQVTVSS	low polyreactivity
QVQLVESGGGLVQAGGSLRLSCAASGSTFGGNDMGWYRQAPGKERELVAAISSGTSTNYADSVKGRFTISRDNAKNTVYLQMNSLKPEDTAVYYCNAGFWYRRTYDYWGQGTQVTVSS	low polyreactivity
QVQLVESGGGLVQAGGSLRLSCAASGRIFDTNAMGWYRQAPGKERELVAAITYSGGSTYYADSVKGRFTISRDNAKNTVYLQMNSLKPEDTAVYYCARVRPYSKYAYGYWGQGTQVTVSS	high polyreactivity
QVQLVESGGGLVQAGGSLRLSCAASGSIFDYNTMGWYRQAPGKERELVAAISSGGSTYYADSVKGRFTISRDNAKNTVYLQMNSLKPEDTAVYYCAARRAGWWGFYYWGQGTQVTVSS	high polyreactivity
QVQLVESGGGLVQAGGSLRLSCAASGSTFTWYAMGWYRQAPGKERELVADISYGGGSTYYADSVKGRFTISRDNAKNTVYLQMNSLKPEDTAVYYCAVDDGFAYSYDWTYRYAEYYYWGQGTQVTVSS	low polyreactivity
QVQLQESGGGLVQAGGSLRLSCAASGSITRYYDMGWYRQAPGKEREFVAGISGGAITYYADSVKGRFTISRDNAKNTVYLQMNSLKPEDTAVYYCAADTGVYQYHSYWGQGTQVTVSS	low polyreactivity
QVQLVESGGGLVQAGGSLRLSCAASASTFGGYVMARYRQAPGKERELVAAISGNGASTTYADSVKGRFTISRDNAKNTVYLQMNSLKPEDTAVYDSAALFRKAHSDYDYWGQGTQVTVSS	low polyreactivity
QVQLVESGGGLVQAGGSLRLSSAGSGFTFYKNAMGWYRQAPGKERELVAAITSSGGSTYYADSVKGRFTISRDNEKNTVYLQMNSLKPEDTAVYYCNKVYSKHYGYWGQGSQVTVSS	high polyreactivity

Source: the nanobody polyreactivity screen of Harvey et al. (2022)
